Assay results from paper PMC9897667 (2023).

Experiments:
[1] = target: human TLR4 (ECD-His Tag, residues 1 to 631) (human, UniProt O00206 24-631); experiment: SPR
[2] = target: extracellular domain of human RAGE (residues 1 to 344) (human, UniProt Q15109 23-344); experiment: SPR
extracellular domain of human RAGE (residues 1 to 344), sequence (Q15109 23-344): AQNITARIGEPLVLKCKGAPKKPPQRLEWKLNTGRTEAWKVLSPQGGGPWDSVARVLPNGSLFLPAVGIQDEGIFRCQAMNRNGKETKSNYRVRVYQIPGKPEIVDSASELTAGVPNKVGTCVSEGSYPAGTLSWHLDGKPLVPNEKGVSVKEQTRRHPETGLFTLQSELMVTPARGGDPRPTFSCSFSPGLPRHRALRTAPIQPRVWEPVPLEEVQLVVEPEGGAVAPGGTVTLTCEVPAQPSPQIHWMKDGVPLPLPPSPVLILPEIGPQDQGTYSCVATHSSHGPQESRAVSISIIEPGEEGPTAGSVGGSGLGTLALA

human TLR4 (ECD-His Tag, residues 1 to 631), sequence (O00206 24-631): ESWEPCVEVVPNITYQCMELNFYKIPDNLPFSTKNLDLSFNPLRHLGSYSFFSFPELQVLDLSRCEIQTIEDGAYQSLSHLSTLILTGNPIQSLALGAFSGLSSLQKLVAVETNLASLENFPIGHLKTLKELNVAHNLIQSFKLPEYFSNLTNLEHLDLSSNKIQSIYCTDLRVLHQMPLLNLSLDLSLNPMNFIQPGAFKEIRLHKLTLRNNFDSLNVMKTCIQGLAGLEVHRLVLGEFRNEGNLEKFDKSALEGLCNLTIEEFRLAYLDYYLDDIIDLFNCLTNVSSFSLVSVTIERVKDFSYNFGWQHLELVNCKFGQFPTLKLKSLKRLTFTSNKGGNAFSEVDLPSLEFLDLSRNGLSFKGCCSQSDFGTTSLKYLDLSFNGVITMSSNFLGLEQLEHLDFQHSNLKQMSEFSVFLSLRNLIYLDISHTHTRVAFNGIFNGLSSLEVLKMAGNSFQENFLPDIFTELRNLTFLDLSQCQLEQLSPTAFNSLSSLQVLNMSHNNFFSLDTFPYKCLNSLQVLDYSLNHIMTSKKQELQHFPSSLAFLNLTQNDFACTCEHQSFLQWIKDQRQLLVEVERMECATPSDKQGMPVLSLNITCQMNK

B1: recombinant human procathepsin L (pCTS-L) (natural protein)
chain: TLTFDHSLEAQWTKWKAMHNRLYGMNEEGWRRAVWEKNMKMIELHNQEYREGKHSFTMAMNAFGDMTSEEFRQVMNGFQNRKPRKGKVFQEPLFYEAPRSVDWREKGYVTPVKNQGQCGSCWAFSATGALEGQMFRKTGRLISLSEQNLVDCSGPQGNEGCNGGLMDYAFQYVQDNGGLDSEESYPYEATEESCKYNPKYSVANDTGFVDIPKQEKALMKAVATVGPISVAIDAGHESFLFYKEGIYFEPDCSSEDMDHGVLVVGYGFESTESDNNKYWLVKNSWGEEWGMGGYVKMAKDRRNHCGIASAASYPTV
Kd [1]: 18 nM
Kd [2]: 2.7 nM
